{"source": "paper doi:10.1101/2020.12.21.423864", "molecular_target": "Cadherin-11 extracellular domain 1 (Cad11-EC1), wild type, residues 1-98", "experiment": "NMR", "data": [{"substance": "Cadherin-11 extracellular domain 1 (Cad11-EC1), wild type, residues 1-98 (domain or fragment)", "values": [{"measurement": "stoichiometry N", "result": 2}]}]}
